The source of these data is PMC9663503, “Independently evolved viral effectors convergently suppress DELLA protein SLR1-mediated broad-spectrum antiviral immunity in rice” (Nature Communications, 2022).

This assay concerns the target T1, GST-SLR1 (rice (Oryza sativa), UniProt Q7G7J6 1-625).
T1 construct: SLENDER RICE 1 (SLR1), the rice DELLA protein; 'the cDNAs encoding SLR1'; source: E. coli Rosetta (DE3), purified (GSTrap FF column)
T1 sequence: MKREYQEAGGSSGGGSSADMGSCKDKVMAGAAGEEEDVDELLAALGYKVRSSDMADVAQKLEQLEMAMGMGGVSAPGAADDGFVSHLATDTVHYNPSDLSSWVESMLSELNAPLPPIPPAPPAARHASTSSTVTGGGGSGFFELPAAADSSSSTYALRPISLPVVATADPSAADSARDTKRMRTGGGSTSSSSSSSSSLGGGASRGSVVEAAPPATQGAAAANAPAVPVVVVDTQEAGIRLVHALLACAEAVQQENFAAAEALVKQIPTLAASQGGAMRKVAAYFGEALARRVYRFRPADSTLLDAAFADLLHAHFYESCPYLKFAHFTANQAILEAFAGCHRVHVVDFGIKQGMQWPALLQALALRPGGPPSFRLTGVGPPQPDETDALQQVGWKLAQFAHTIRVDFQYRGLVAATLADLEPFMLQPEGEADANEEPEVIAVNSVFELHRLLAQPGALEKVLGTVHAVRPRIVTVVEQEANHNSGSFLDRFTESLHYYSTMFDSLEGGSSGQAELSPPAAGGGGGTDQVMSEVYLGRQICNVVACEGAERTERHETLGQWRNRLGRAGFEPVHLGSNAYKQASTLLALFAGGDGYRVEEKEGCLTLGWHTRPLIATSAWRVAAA
Put plainly: pull-down; competitive pull-down: GST-SLR1 and MBP-His-OsGID1 with 100 µM GA3, then 10 or 50 µg TF-His-SP8 (or MBP-His-P2), 4 °C about 2 h; GST beads; anti-GST and anti-His blots. The following applies: both partners purified.

B1: MBP-His-OsGID1 (receptor)
chain: MAGSDEVNRNECKTVVPLHTWVLISNFKLSYNILRRADGTFERDLGEYLDRRVPANARPLEGVSSFDHIIDQSVGLEVRIYRAAAEGDAEEGAAAVTRPILEFLTDAPAAEPFPVIIFFHGGSFVHSSASSTIYDSLCRRFVKLSKGVVVSVNYRRAPEHRYPCAYDDGWTALKWVMSQPFMRSGGDAQARVFLSGDSSGGNIAHHVAVRAADEGVKVCGNILLNAMFGGTERTESERRLDGKYFVTLQDRDWYWKAYLPEDADRDHPACNPFGPNGRRLGGLPFAKSLIIVSGLDLTCDRQLAYADALREDGHHVKVVQCENATVGFYLLPNTVHYHEVMEEISDFLNANLYY
notes: OsGID1, the rice gibberellin receptor GIBBERELLIN … DWARF1; also called PET32a-MBP-His-OsGID1; source: E. coli Rosetta (DE3), purified (Ni-NTA His-trap column)
On to B1, for which the binding result was “binds”.
